Residue numbers refer to the chain shown, from its start.
B1: ESBA105 (scFv)
scFv: DIVMTQSPSSLSASVGDRVTLTCTASQSVSNDVVWYQQRPGKAPKLLIYSAFNRYTGVPSRFSGRGYGTDFTLTISSLQPEDVAVYYCQQDYNSPRTFGQGTKLEVKRGGGGSGGGGSGGGGSSGGGSQVQLVQSGAEVKKPGASVKVSCTASGYTFTHYGMNWVRQAPGKGLEWMGWINTYTGEPTYADKFKDRFTFSLETSASTVYMELTSLTSDDTAVYYCARERGDAMDYWGQGTLVTVSS
B2: ESBA105-QC15.2 (scFv)
scFv: B1 scFv with K171R, F196I
B3: ESBA105-H_F68A (scFv)
scFv: B1 scFv with F196A

Columns and labels:
[1] = molecular target: T1, TNFα (tumour necrosis factor alpha) (UniProt P01375 77-233, limits assumed); assay: cell-based or functional assay
[2] = molecular target: T1, TNFα (tumour necrosis factor alpha); assay: cell-based or functional assay; remark: listed apart in the source

T1 sequence (P01375 77-233 limits assumed): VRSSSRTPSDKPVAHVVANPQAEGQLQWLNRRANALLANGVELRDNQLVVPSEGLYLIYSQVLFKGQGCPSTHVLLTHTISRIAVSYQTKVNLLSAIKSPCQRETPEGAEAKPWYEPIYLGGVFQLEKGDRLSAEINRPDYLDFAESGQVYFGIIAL

Binder | EC50 (read off the curve), L929 assay, ESBA105 stored 8 weeks at 37° C. (triangles, dashed line) [1] [ng/mL] | Relative potency: EC50X/EC50ESBA105, KYM-1 cells [2] [ratio EC50X/EC50ESBA105] | Relative potency: EC50X/EC50ESBA105, L929 cells [2] [ratio EC50X/EC50ESBA105]
B1 | ~10 | 1 | 1
B2 | – | 1.5 | 1.37
B3 | – | – | 1.14
